# Measurements as given in FireProtDB (doi:10.1002/pro.5560050915).
# Conditions: Bos taurus; pH 8.5; Thermal; DSC; ascorbate 1 mM; whole UniProt chain shown
protein,measurement,value
"Adrenodoxin, mitochondrial wild type, P00257 (protein) MAARLLRVASAALGDTAGRWRLLARPRAGAGGLRGSRGPGLGGGAVATRTLSVSGRAQSSSEDKITVHFINRDGETLTTKGKIGDSLLDVVVQNNLDIDGFGACEGTLACSTCHLIFEQHIFEKLEAITDEENDMLDLAYGLTDRSRLGCQICLTKAMDNMTVRVPDAVSDARESIDMGMNSSKIE",Tm,51.4 °C
same,heat capacity change of unfolding,1.79 kcal/mol/K
same,unfolding enthalpy (calorimetric),84.8 kcal/mol
